The values that follow come from PMC4906244.

This data set has as its system His6-ComPsub (Neisseria subflava NJ9703), PDB:2NBA_1. Description: SPR. Particulars: DNA immobilized on neutravidin chip; EMSA: 20 mM Tris-Cl pH 8, 50 mM NaCl, 2.5 mM Mg2+, ambient temperature; SPR: 20 mM Tris pH 8, 150 mM NaCl, 0.05% Tween 20, 25 C; NMR: 50 mM sodium phosphate pH …. (In EMSA bound probe runs differently from free probe, usually more slowly.)

Usually Kd stands for a measure of binding affinity in units of concentration.

The sequence “TGACCAGGCCGTCTGAACAAAC (double strand) [DUSvar1 ds primer (biotinylated)]” displayed a dissociation constant Kd of 52.7 µM. This counts as double-digit micromolar.
